Here are results for ten molecules from patent US20240417458A1 (DISC MEDICINE, published 2024).

The Kd is the concentration at which binding is half-saturated. In general, koff refers to the first-order rate constant of dissociation. Low values mean a long-lived complex, high ones a short-lived complex. The kon is the second-order rate constant of association. Higher therefore signals fast association.

B1: hHA-011 (antibody, human IgG1, kappa, L234A L235A, V domains shown)
VH: EVQLVESGGGLVQPGGSLRLSCAASGFTFSNYGMNWVRQAPGKGLEWIGMIYYDSSEKHYADSVKGRFTISRDNSKNTLYLQMNSLRAEDTAVYYCAKGSTPDYWGQGTMVTVSS
VL: DVVLTQSPLSLPVTLGQPASISCRSSQSLEDSDGGTFLEWFQQRPGQSPRLLIYDVSSRFSGVPDRFSGSGSGTDFTLKISRVEAEDVGVYYCFQATHDPLSFGQGTKLEIKR
notes: hIgG1 L234A, L235A, kappa
B2: hHA-004 (antibody, human IgG1, kappa, L234A L235A, V domains shown)
VH: B1 VH with V37I, S100T
VL: B1 VL with D31S, G35D, S58T, A96V, L101V, S102T
notes: hIgG1 L234A, L235A, kappa
B3: hHA-001 (antibody, human IgG1, kappa, L234A L235A, V domains shown)
VH: B1 VH with V37I, S100T
VL: B1 VL with D31T, G35D, D55E, S58T, A96V, L101M, S102T
notes: hIgG1 constant region with L234A, L235A, kappa
B4: hHA-003 (antibody, human IgG1, kappa, L234A L235A, V domains shown)
VH: B1 VH with V37I, S100T
VL: B1 VL with D31T, G35D, D55E, S58N, A96V, L101V, S102T
notes: hIgG1 L234A, L235A, kappa
B5: hHA-010 (antibody, human IgG1, kappa, L234A L235A, V domains shown)
VH: B1 VH with S100T, Y104K
VL: B1 VL with D31E, G35Y, D55E, S58H, S102T
notes: hIgG1 L234A, L235A, kappa
B6: hHA-006 (antibody, human IgG1, kappa, L234A L235A, V domains shown)
VH: B1 VH with N31Y, V37I, S100T
VL: B1 VL with S102T
notes: hIgG1 L234A, L235A, kappa
B7: hHA-002 (antibody, human IgG1, kappa, L234A L235A, V domains shown)
VH: B1 VH with V37I, S100T
VL: B1 VL with D31T, G35D, D55E, F94M, A96V, S102T
notes: hIgG1 L234A, L235A, kappa
B8: hHA-009 (antibody, human IgG1, kappa, L234A L235A, V domains shown)
VH: B1 VH with S100T
VL: B1 VL with E30A, G35D, E39H, D55A, S58H, L101V, S102T
notes: hIgG1 L234A, L235A, kappa
B9: hHA-007 (antibody, human IgG1, kappa, L234A L235A, V domains shown)
VH: B1 VH with V37I, E57D, S100T, Y104V
VL: B1 VL with D31E, G35Y, E39H, D55E, S58N, L101V, S102T
notes: hIgG1 L234A, L235A, kappa
B10: hHA-005 (antibody, human IgG1, kappa, L234A L235A, V domains shown)
VH: B1 VH with V37I, S100T
VL: B1 VL with D31E, G35Y, S58E, H98Y, S102T
notes: hIgG1 L234A, L235A, kappa

Substitutions are numbered along the chain they refer to. In names and notes the source's numbering stands. A value given as a limit tells only on which side of the number the result lay.

The target of one test is T1, membrane-bound human RGMa (human, UniProt Q96B86 169-424).
T1 sequence (looked up): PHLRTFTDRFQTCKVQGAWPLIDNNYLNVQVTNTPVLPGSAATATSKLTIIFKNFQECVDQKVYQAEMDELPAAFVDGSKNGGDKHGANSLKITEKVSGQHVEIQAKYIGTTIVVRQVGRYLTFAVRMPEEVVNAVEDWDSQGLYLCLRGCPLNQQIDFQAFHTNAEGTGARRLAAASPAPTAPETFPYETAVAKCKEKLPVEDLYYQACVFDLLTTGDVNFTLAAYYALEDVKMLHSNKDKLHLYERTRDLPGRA
Nature of the test: cell-based or functional assay.
With B1, the “IC50 (nM), BMP reporter assay for RGMa” value was found to be 1.66 nM.
Regarding B2, the “IC50 (nM), BMP reporter assay for RGMa” value came out at 2.01 nM.

The target in a further test is T2, soluble rat RGMa (rat, UniProt D4A188 48-421).
T2 construct: Soluble antigen in BIAcore
T2 sequence: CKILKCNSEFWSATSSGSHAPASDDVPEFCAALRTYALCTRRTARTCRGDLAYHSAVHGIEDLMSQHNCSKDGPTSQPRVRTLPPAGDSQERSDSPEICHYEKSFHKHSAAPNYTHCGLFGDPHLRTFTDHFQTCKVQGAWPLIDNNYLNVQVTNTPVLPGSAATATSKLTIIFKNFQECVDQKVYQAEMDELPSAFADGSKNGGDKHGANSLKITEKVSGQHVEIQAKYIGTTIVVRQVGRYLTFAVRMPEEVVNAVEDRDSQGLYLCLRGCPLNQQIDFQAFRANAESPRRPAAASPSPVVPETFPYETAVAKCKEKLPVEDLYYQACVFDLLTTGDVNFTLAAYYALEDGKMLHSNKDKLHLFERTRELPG
Put plainly: SPR (BIAcore). In general terms: In SPR one partner is held on a chip, and binding of the other changes the refractive index at the surface.
Description: (§1) Binding affinities of the anti-HJV antibodies to soluble human RGMa, Rat RGMa and human RGMc were measured by BIAcore analysis.
Turning to B3, the dissociation constant Kd was 0.031 nM, the koff came out at 3.6e-05 s⁻¹ and the kon was determined as 1.2e+06 M⁻¹ s⁻¹.
In the same order, the values of B4 are 0.036 nM, 3.1e-05 s⁻¹ and 870000 M⁻¹ s⁻¹.
In turn, B1 came in with an equilibrium dissociation constant (Kd) of 0.074 nM, a koff of 5.2e-05 s⁻¹ and a kon of 700000 M⁻¹ s⁻¹.
Take B5: the affinity, expressed as Kd, was 0.039 nM; the koff was found to be 2.6e-05 s⁻¹; the on-rate (kon) is 660000 M⁻¹ s⁻¹.
In the same order, the values of B6 are 0.032 nM, 3e-05 s⁻¹ and 940000 M⁻¹ s⁻¹.
In the same order, the values of B7 are 0.053 nM, 5.5e-05 s⁻¹ and 1e+06 M⁻¹ s⁻¹.
In turn, B2 had a dissociation constant Kd of under 0.00094 nM, an off-rate constant (koff) of under 1e-06 s⁻¹ and a kon of 1.1e+06 M⁻¹ s⁻¹.
On the same counts, the results for B8 are 0.31 nM, 0.00021 s⁻¹ and 680000 M⁻¹ s⁻¹.
On the same counts, the results for B9 are under 0.002 nM, under 1e-06 s⁻¹ and 510000 M⁻¹ s⁻¹.
In the same order, the values of B10 are 0.15 nM, 0.00021 s⁻¹ and 1.4e+06 M⁻¹ s⁻¹.

The target of the next test is T3, membrane-bound human RGMc (human, UniProt Q6ZVN8 36-400).
T3 sequence: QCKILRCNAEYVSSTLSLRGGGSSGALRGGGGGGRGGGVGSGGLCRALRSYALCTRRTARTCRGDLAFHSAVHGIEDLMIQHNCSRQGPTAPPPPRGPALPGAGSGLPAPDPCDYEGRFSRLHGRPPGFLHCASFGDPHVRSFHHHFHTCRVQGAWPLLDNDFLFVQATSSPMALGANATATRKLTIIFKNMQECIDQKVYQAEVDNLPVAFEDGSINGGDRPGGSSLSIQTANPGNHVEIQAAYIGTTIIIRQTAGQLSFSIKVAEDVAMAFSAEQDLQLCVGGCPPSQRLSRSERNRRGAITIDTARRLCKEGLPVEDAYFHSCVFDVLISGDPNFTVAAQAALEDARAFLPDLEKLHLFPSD
Nature of the test: cell-based or functional assay.
In the case of B1, the “IC50 (read off the curve)” value is about 0.5 nM.
On the same count and under the same terms, the same measure for B2: about 0.3 nM; for B8: about 2 nM.

Another test addresses T3, membrane-bound human RGMc. Put plainly: cell-based or functional assay. The source holds these as a separate data set.
With B1, the “IC50 (nM), BMP reporter assay for RGMc (BRE-Luc, HEK293)” value stood at 0.0554 nM.
Regarding B2, the “IC50 (nM), BMP reporter assay for RGMc (BRE-Luc, HEK293)” value came out at 0.312 nM.
Still for that read-out and setting: then B8, with 1.36 nM.

A further test concerns the target T1, membrane-bound human RGMa. Nature of the test: cell-based or functional assay. This is another data set of the same source.
With B1, the “IC50 (read off the curve)” value was about 2 nM.
As to B2, the “IC50 (read off the curve)” value is about 2 nM.

A further test addresses T4, soluble human RGMc (human, UniProt Q6ZVN8 36-400).
T4 construct: also called huRGMc; soluble hRGMc
T4 sequence: T3 sequence
Nature of the test: SPR (BIAcore), soluble hRGMc; summary table.
For B1, binding was put at a Kd of 0.285 nM, the koff is 0.0014 s⁻¹ and the kon was determined as 5.05e+06 M⁻¹ s⁻¹.
On the same counts, the results for B2 are 0.13 nM, 0.00104 s⁻¹ and 7.85e+06 M⁻¹ s⁻¹.
As to B8, the Kd came to 0.71 nM, the dissociation rate constant (koff) was determined as 0.0107 s⁻¹ and the on-rate constant (kon) amounted to 1.55e+07 M⁻¹ s⁻¹.

Another test has as its target T3, membrane-bound human RGMc. Nature of the test: cell-based or functional assay. The source holds these as a separate data set.
With B1, the “Potency on membrane hRGMc (RGMc/BMP reporter assay), IC50” value came to 0.52 nM.
As for B2, the “Potency on membrane hRGMc (RGMc/BMP reporter assay), IC50” value was 0.31 nM.
Still for that read-out and setting: the same measure for B8: 1.36 nM.

In another test the target is T1, membrane-bound human RGMa. Nature of the test: cell-based or functional assay. The source holds these as a separate data set.
With B1, the “Potency on membrane hRGMa (RGMa/BMP reporter assay), IC50” value turned out to be 1.7 nM.
In the case of B2, the “Potency on membrane hRGMa (RGMa/BMP reporter assay), IC50” value is 2 nM.

Another test addresses T5, soluble human RGMa (human, UniProt Q96B86 48-422, limits assumed).
T5 construct: Soluble antigen in BIAcore; also called huRGMa; repulsive guidance molecule A
T5 sequence (looked up): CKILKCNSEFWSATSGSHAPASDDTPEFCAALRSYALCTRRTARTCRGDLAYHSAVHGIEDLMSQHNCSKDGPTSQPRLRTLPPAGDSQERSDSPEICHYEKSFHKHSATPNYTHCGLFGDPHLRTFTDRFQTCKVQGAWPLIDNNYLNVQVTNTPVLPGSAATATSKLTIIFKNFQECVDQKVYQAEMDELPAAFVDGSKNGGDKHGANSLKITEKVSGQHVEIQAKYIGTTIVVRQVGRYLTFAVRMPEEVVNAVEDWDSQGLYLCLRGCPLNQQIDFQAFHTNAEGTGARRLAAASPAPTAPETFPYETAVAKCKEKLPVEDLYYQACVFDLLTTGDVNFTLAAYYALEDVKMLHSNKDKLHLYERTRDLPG
Nature of the test: SPR (BIAcore).
Description: as §1
B3 had a dissociation constant (Kd) of 0.038 nM, a koff of 6.7e-05 s⁻¹ and an on-rate (kon) of 1.8e+06 M⁻¹ s⁻¹.
In the same order, the values of B4 are 0.12 nM, 0.00014 s⁻¹ and 1.1e+06 M⁻¹ s⁻¹.
On to B1, for which the Kd stood at 0.11 nM, the koff came out at 9.9e-05 s⁻¹ and the on-rate constant (kon) was 930000 M⁻¹ s⁻¹.
On the same counts, the results for B5 are 0.12 nM, 0.0001 s⁻¹ and 850000 M⁻¹ s⁻¹.
Consider B6, for which the dissociation constant Kd stood at 0.12 nM, the off-rate constant (koff) was found to be 0.00014 s⁻¹ and the on-rate constant (kon) amounted to 1.2e+06 M⁻¹ s⁻¹.
On the same counts, the results for B7 are 0.037 nM, 5e-05 s⁻¹ and 1.4e+06 M⁻¹ s⁻¹.
In turn, B2 registered a dissociation constant Kd of 0.015 nM, an off-rate (koff) of 2.2e-05 s⁻¹ and an on-rate constant (kon) of 1.4e+06 M⁻¹ s⁻¹.
In the same order, the values of B8 are 0.47 nM, 0.0004 s⁻¹ and 860000 M⁻¹ s⁻¹.
B9: the Kd stood at 0.15 nM, the koff turned out to be 8.9e-05 s⁻¹ and the on-rate (kon) was determined as 590000 M⁻¹ s⁻¹.
B10 showed a dissociation constant Kd of 0.13 nM, a koff of 0.00025 s⁻¹ and a kon of 1.9e+06 M⁻¹ s⁻¹.

The next test addresses T4, soluble human RGMc. Put plainly: SPR (BIAcore).
Description: as §1
B3 showed a dissociation constant (Kd) of 0.16 nM, a koff of 0.00165 s⁻¹ and an on-rate (kon) of 1.08e+07 M⁻¹ s⁻¹.
Turning to B4, binding was characterised by a dissociation constant (Kd) of 0.3 nM, the koff turned out to be 0.0024 s⁻¹ and the kon turned out to be 8.1e+06 M⁻¹ s⁻¹.
In the same order, the values of B1 are 0.285 nM, 0.0014 s⁻¹ and 5.05e+06 M⁻¹ s⁻¹.
On the same counts, the results for B5 are 0.445 nM, 0.0044 s⁻¹ and 9.9e+06 M⁻¹ s⁻¹.
On the same counts, the results for B6 are 0.385 nM, 0.00255 s⁻¹ and 6.65e+06 M⁻¹ s⁻¹.
B7: the Kd amounted to 0.225 nM, the koff is 0.0017 s⁻¹ and the kon was determined as 7.65e+06 M⁻¹ s⁻¹.
In the same order, the values of B2 are 0.13 nM, 0.00104 s⁻¹ and 7.85e+06 M⁻¹ s⁻¹.
Turning to B8, binding was characterised by a dissociation constant (Kd) of 0.71 nM, the koff was found to be 0.0107 s⁻¹ and the kon turned out to be 1.55e+07 M⁻¹ s⁻¹.
Take B9: binding was characterised by a dissociation constant (Kd) of 0.425 nM, the off-rate constant (koff) was determined as 0.00215 s⁻¹ and the on-rate (kon) was found to be 5.05e+06 M⁻¹ s⁻¹.
On the same counts, the results for B10 are 0.32 nM, 0.0136 s⁻¹ and 4.15e+07 M⁻¹ s⁻¹.
